How the values were obtained:
A549 cells = test: MTT cell viability, A549; format: cell-based, human; settings: AChE-ID media, 48 h, A549; Fig. 7A
Description: Human NSCLC cell lines, A549 (ATCC CCL‐185) and H1299 (ATCC CRL‐5803), were purchased from the American Type Culture Collection (ATCC, Manassas, VA, USA). Cells were seeded as we reported earlier in 5 mL HyClone Dulbecco's modified Eagle's medium/nutrient mixture F‐12 (DMEM/F12) (GE Healthcare Life Sciences, Pittsburgh, PA, USA), supplemented with 10% Fetalgro bovine growth serum (FBS; RMBIO, Missoula, MT, USA), 50 U·mL^−1 penicillin, and […] streptomycin (Invitrogen, Life Technologies, Carlsbad, CA, USA) in 25‐cm^2 tissue culture flasks, and allowed to grow overnight in an incubator at 37 °C, 95% humidity, and 5% CO2. The cells were counted after trypan blue staining, with a hemocytometer.
The 3‐(4,5‐dimethylthiazol‐2‐yl)‐2,5‐diphenyl‐tetrazolium bromide (MTT) reduction assay (Sigma‐Aldrich), used to measure cell viability, was carried out as we reported earlier. […] The absorbance was measured at 570 nm in a plate reader. […]
(§1) Conditioned media were immunodepleted (ID) according to the methods previously described and our recently published report. […] The ID media were then carefully removed and analyzed for the presence of the target protein or peptide by ELISA. The same amount of protein (3 µL of 600 µg·mL^−1 total protein) of each sample was analyzed in the experiments. […]

[1] = tested on: Aβ in H1299 cell-conditioned media; test: ELISA, oligomer versus total Aβ in H1299 cell-conditioned media; format: cell-based, human; settings: AChE-immunodepleted H1299 media; Fig. 8B
Description: Aβ ELISAs were carried out according to previous protocols for determining the oligomeric and monomeric concentrations of Aβ and as we recently reported. Briefly, total Aβ (monomers + oligomers) was measured by two‐site binding ELISAs using the capture 6E10 monoclonal antibody and 4G8‐conjugated biotin as the detection antibody, which recognizes a distinct epitope, then quantitated using streptavidin‐HRP.
Using the same samples, oligomerized Aβ was measured by a single‐site ELISA in which antibodies targeting the same primary sequence epitope were used for both capture (4G8) and detection (4G8‐biotin). Only oligomers are detected with this approach since the 4G8‐biotin antibody cannot bind to the captured monomer because the epitope is blocked by the 4G8 capture antibody. […]
as §1
Both epitopes recognized by the 6E10 and 4G8 antibodies have been previously shown to be exposed in Aβ aggregates. […] Fold change relative to controls using anti‐6E10 or anti‐4G8 antibodies incubated with 300 μL of the medium not incubated with cells was calculated. […]

B1: acetylcholinesterase (protein)
chain: EGREDAELLVTVRGGRLRGIRLKTPGGPVSAFLGIPFAEPPMGPRRFLPPEPKQPWSGVVDATTFQSVCYQYVDTLYPGFEGTEMWNPNRELSEDCLYLNVWTPYPRPTSPTPVLVWIYGGGFYSGASSLDVYDGRFLVQAERTVLVSMNYRVGAFGFLALPGSREAPGNVGLLDQRLALQWVQENVAAFGGDPTSVTLFGESAGAASVGMHLLSPPSRGLFHRAVLQSGAPNGPWATVGMGEARRRATQLAHLVGCPPGGTGGNDTELVACLRTRPAQVLVNHEWHVLPQESVFRFSFVPVVDGDFLSDTPEALINAGDFHGLQVLVGVVKDEGSYFLVYGAPGFSKDNESLISRAEFLAGVRVGVPQVSDLAAEAVVLHYTDWLHPEDPARLREALSDVVGDHNVVCPVAQLAGRLAAQGARVYAYVFEHRASTLSWPLWMGVPHGYEIEFIFGIPLDPSRNYTAEEKIFAQRLMRYWANFARTGDPNEPRDPKAPQWPPYTAGAQQYVSLDLRPLEVRRGLRAQACAFWNRFLPKLLSATDTLDEAERQWKAEFHRWSSYMVHWKNQFDHYSKQDRCSDL
A549 cells
  increase in cell viability upon AChE immunodepletion: ~ 1.45 fold
[1]
  effect of AChE ID on oligomer versus total Aβ: No change

— PMC7714071, “Interaction of amyloid beta with humanin and acetylcholinesterase is modulated by ATP” (FEBS Open Bio, 2020)
